This note sets out measurements from US20090311253A1 (AbbVie / Abbott, published 2009).

Assay [1] deals with T1, Recombinant Human IL-4 (human, UniProt P05112 25-153).
T1 sequence (looked up): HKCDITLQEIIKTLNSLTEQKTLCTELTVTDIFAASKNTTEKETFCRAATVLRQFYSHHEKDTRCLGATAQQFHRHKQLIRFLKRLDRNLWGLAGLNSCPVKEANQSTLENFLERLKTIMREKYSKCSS
Kind of assay: direct bind ELISA. Background: An ELISA detects its analyte on a solid surface through an enzyme-linked reagent.

Assay [2] concerns the target T2, Recombinant Human IL-13 (human, UniProt P35225 35-146, limits assumed). Kind of assay: direct bind ELISA.
Assay [3] concerns the target T1, Recombinant Human IL-4. Kind of assay: cell-based or functional assay.
For assay [4], the target named is T2, Recombinant Human IL-13. Put plainly: cell-based or functional assay.
In assay [5] the target is T1, Recombinant Human IL-4. Kind of assay: Biacore SPR.
The target of assay [6] is T2, Recombinant Human IL-13. Put plainly: Biacore SPR.

T2 sequence (P35225 35-146 limits assumed): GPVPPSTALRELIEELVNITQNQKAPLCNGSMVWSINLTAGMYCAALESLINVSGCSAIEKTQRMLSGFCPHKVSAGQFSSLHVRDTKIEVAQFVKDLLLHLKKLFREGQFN

B1: DVD267 (bispecific antibody, human IgG1, kappa)
heavy: not shown
light: DIQMTQSPSSLSASVGDRVTISCRASQDIRNYLNWYQQKPGKAPKLLIFYTSKLHSGVPSRFSGSGSGTDYTLTISSLQPEDIATYYCQQGLTPPLTFGGGTKVEIKRTVAAPDIVLTQSPSSLSASVGDRVTITCKASQSVDYDGDSYMNWYQQKPGKAPKLLIYAASNLESGIPSRFSGSGSGTDFTFTISSLQPEDIATYYCQQSNEDPPTFGQGTKVEIKRTVAAPSVFIFPPSDEQLKSGTASVVCLLNNFYPREAKVQWKVDNALQSGNSQESVTEQDSKDSTYSLSSTLTLSKADYEKHKVYACEVTHQGLSSPVTKSFNRGEC
notes: outer AB051, inner AB027; vectors V1, V2
Consider B1, for which the results for the 50% effective concentration (EC50) in the assay with Recombinant Human IL-4 [1] and with Recombinant Human IL-13 [2] were 748 nM and 5.89 nM, respectively. For the same molecule, the “IL-4 Neutralization Assay EC50 (A549 cells, hTARC)” value with Recombinant Human IL-4 [3] is 0.09 nM. Besides, the “IL-13 Neutralization Assay EC50 (A549 cells, hTARC)” value with Recombinant Human IL-13 [4] was determined as 0.09 nM. The results for the dissociation constant (Kd) with Recombinant Human IL-4 [5] and in the assay with Recombinant Human IL-13 [6] were 4.86 nM and 0.0497 nM, respectively. The results for the koff in the assay with Recombinant Human IL-4 [5] and in the assay with Recombinant Human IL-13 [6] were 0.000343 s⁻¹ and 8.69e-05 s⁻¹, respectively. Besides, the on-rate constant (kon) in the assay with Recombinant Human IL-4 [5] was 70600 M⁻¹ s⁻¹; in the assay with Recombinant Human IL-13 [6] it was 1.75e+06 M⁻¹ s⁻¹.

The EC50 is the concentration needed to bring the measured effect to its halfway point. As usually defined, the Kd is the concentration at which binding is half-saturated. By koff is commonly meant a measure of how fast the partners let go of each other. One may read the kon as the second-order rate constant of association.
